Where a chain is given by its changes, count along the chain named. No end group written: not given here.
Legend:
Assay in all cases: AlphaScreen or HTRF
[1] = target: T1, H6-tagged Arabidopsis TPR4 N-terminal domain, TPR4(1–209) (Arabidopsis, UniProt Q27GK7 1-209)
T1 sequence (looked up): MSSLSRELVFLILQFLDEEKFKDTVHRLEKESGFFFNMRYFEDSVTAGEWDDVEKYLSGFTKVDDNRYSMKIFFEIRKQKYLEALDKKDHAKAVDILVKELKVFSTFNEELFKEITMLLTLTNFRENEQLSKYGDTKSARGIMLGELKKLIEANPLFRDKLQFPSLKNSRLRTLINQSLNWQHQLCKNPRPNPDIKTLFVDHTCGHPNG

[2] = target: T2, H6-tagged Arabidopsis TPR1 N-terminal domain, TPR1(1–209) (Arabidopsis, UniProt Q0WV90 1-209)
T2 sequence (looked up): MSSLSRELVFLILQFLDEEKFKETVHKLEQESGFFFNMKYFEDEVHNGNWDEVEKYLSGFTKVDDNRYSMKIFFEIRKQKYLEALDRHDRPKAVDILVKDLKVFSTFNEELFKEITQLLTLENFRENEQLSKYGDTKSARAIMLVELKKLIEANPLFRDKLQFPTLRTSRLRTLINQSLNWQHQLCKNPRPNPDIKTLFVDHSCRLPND

[3] = target: T3, H6-tagged OsTPL N-terminal domain (TPD), TPL(1–209) (rice, UniProt Q0J7U6 1-209)
T3 sequence (looked up): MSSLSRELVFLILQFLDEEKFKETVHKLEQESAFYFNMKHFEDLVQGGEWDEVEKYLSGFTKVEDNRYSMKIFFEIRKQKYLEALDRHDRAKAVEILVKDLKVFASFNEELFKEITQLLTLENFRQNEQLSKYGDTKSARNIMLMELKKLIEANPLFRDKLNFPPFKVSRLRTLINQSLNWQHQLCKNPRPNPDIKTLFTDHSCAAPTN

[4] = target: T4, H6-tagged OsTPR1 N-terminal domain (TPD), TPR1(1–209) (rice, UniProt Q10NY2 1-209)
T4 sequence (looked up): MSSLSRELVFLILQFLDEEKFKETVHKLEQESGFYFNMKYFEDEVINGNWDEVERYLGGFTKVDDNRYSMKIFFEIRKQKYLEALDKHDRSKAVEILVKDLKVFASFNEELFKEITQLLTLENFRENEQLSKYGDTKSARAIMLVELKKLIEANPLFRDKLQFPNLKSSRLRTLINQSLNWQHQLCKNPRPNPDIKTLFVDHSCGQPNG

[5] = target: T5, H6-tagged OsTPR2 N-terminal domain (TPD), TPR2(1–210) (rice, UniProt Q5NBT9 1-210)
T5 sequence (looked up): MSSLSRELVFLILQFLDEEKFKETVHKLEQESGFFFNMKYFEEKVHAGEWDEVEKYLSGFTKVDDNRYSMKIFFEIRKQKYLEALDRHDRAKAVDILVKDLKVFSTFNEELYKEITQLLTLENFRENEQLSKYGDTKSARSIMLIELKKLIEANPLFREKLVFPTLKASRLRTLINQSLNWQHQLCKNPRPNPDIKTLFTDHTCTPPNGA

[6] = target: T6, H6-tagged Arabidopsis TPR2 N-terminal domain, TPR2(1–209) (Arabidopsis, UniProt Q9LRZ0 1-209)
T6 sequence (looked up): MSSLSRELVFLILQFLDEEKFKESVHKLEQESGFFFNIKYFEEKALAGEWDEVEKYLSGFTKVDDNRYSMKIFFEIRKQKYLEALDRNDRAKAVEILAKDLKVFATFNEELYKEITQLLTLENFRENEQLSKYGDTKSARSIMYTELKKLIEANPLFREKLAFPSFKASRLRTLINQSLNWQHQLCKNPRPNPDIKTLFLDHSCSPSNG

[7] = target: T7, H6-tagged Arabidopsis TPR3 N-terminal domain, TPR3(1–209) (Arabidopsis, UniProt Q84JM4 1-209)
T7 sequence (looked up): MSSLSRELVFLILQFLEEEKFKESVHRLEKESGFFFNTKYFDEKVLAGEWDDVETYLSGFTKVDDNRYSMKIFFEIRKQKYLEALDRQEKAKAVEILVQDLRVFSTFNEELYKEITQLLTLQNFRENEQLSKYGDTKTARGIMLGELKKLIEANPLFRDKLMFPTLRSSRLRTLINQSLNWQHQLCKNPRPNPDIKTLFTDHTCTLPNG

[8] = target: T8, H6-tagged Arabidopsis TPL N-terminal domain, TPL(1–209) (Arabidopsis, UniProt Q94AI7 1-209)
T8 sequence (looked up): T2 sequence (looked up) with R87K, T168N, R205G, L206P, D209G

Measured: binding result

B1: biotinylated NINJA EAR motif peptide (12 amino acids, wild type) (peptide)
peptide: DNGLELSLGLSC
modifications: also: biotinylated, end not given here
binds: [1] | [2] | [3] | [4] | [5] | [6] | [7] | [8]

Reference: publication PMC4646777 (Science Advances, 2015)
